Reference: patent US20110207796

Molecular target: human alpha-synuclein (wild-type, recombinant)

B1: met proto-oncogene (hepatocyte growth factor receptor) (protein)
chain: KKRKQIKDLGSELVRYDARVHTPHLDRLVSARSVSPTTEMVSNESVDYRATFPEDQFPNSSQNGSCRQVQYPLTDMSPILTSGDSDISSPLLQNTVHIDLSALNPELVQAVQHVVIGPSSLIVHFNEVIGRGHFGCVYHGTLLDNDGKKIHCAVKSLNRITDIGEVSQFLTEGIIMKDFSHPNVLSLLGICLRSEGSPLVVLPYMKHGDLRNFIRNETHNPTVKDLIGFGLQVAKGMKYLASKKFVHRDLAARNCMLDEKFTVKVADFGLARDMYDKEYYSVHNKTGAKLPVKWMALESLQTQKFTTKSDVWSFGVLLWELMTRGAPPYPDVNTFDITVYLLQGRRLLQPEYCPDPLYEVMLKCWHPKAEMRPSFSELVSRISAIFSTFIGEHYVHVNATYVNVKCVAPYPSLLSSEDNADDEVDTRPASFWETS
B1 was tested, and the “in vitro kinase reaction, phosphorylation of alpha-synuclein” value was “shown to be incapable of directly phosphorylating alpha-synuclein”.

B2: G protein-coupled receptor kinase 6 (protein)
chain: MELENIVANTVLLKAREGGGGNRKGKSKKWRQMLQFPHISQCEELRLSLERDYHSLCERQPIGRLLFREFCATRPELSRCVAFLDGVAEYEVTPDDKRKACGRQLTQNFLSHTGPDLIPEVPRQLVTNCTQRLEQGPCKDLFQELTRLTHEYLSVAPFADYLDSIYFNRFLQWKWLERQPVTKNTFRQYRVLGKGGFGEVCACQVRATGKMYACKKLEKKRIKKRKGEAMALNEKQILEKVNSRFVVSLAYAYETKDALCLVLTLMNGGDLKFHIYHMGQAGFPEARAVFYAAEICCGLEDLHRERIVYRDLKPENILLDDHGHIRISDLGLAVHVPEGQTIKGRVGTVGYMAPEVVKNERYTFSPDWWALGCLLYEMIAGQSPFQQRKKKIKREEVERLVKEVPEEYSERFSPQARSLCSQLLCKDPAERLGCRGGSAREVKEHPLFKKLNFKRLGAGMLEPPFKPDPQAIYCKDVLDIEQFSTVKGVELEPTDQDFYQKFATGSVPIPWQNEMVETECFQELNVFGLDGSVPPDLDWKGQPPAPPKKGLLQRLFSRQDCCGNCSDSEEELPTRL
B2 was tested, and the “S129 phosphorylation in vitro, kinases normalized by activity units” value was “The most prominent result came from GRK6”, the “S129 phosphorylation, immunoblot (mAb 11A5), kinase:rAS 1:200 molar” value was “Prominent signals came from GRK6, CKI, CKII and PLK2” and the “S129 phosphorylation, immunoblot (mAb 11A5), rank of signal” value (from here on “S129 phosphorylation … of signal”) was “CKI>GRK6>PLK2>GRK4>GRK5>GRK2”. The “in vitro kinase reaction, phosphorylation of alpha-synuclein at serine 129” value (shortened to “in vitro kinase reaction … at serine 129”) was “capable of phosphorylating alpha-synuclein specifically at serine 129 and did not phosphorylate serine 87 in vitro” and the “phospho ser-129 in vitro, kinases normalized for molarity” value was “roughly equivalent levels of phospho ser-129 between CKI, GRK6 and PLK2”.

B3: CDC7 cell division cycle 7-like 1 (protein)
chain: MEASLGIQMDEPMAFSPQRDRFQAEGSLKKNEQNFKLAGVKKDIEKLYEAVPQLSNVFKIEDKIGEGTFSSVYLATAQLQVGPEEKIALKHLIPTSHPIRIAAELQCLTVAGGQDNVMGVKYCFRKNDHVVIAMPYLEHESFLDILNSLSFQEVREYMLNLFKALKRIHQFGIVHRDVKPSNFLYNRRLKKYALVDFGLAQGTHDTKIELLKFVQSEAQQERCSQNKSHIITGNKIPLSGPVPKELDQQSTTKASVKRPYTNAQIQIKQGKDGKEGSVGLSVQRSVFGERNFNIHSSISHESPAVKLMKQSKTVDVLSRKLATKKKAISTKVMNSAVMRKTASSCPASLTCDCYATDKVCSICLSRRQQVAPRAGTPGFRAPEVLTKCPNQTTAIDMWSAGVIFLSLLSGRYPFYKASDDLTALAQIMTIRGSRETIQAAKTFGKSILCSKEVPAQDLRKLCERLRGMDSSTPKLTSDIQGHASHQPAISEKTDHKASCLVQTPPGQYSGNSFKKGDSNSCEHCFDEYNTNLEGWNEVPDEAYDLLDKLLDLNPASRITAEEALLHPFFKDMSL
With B3 the “in vitro kinase reaction, phosphorylation of alpha-synuclein” value was “shown to be incapable of directly phosphorylating alpha-synuclein”.

B4: PLK3 (protein)
chain: MEPAAGFLSPRPFQRAAAAPAPPAGPGPPPSALRGPELEMLAGLPTSDPGRLITDPRSGRTYLKGRLLGKGGFARCYEATDTETGSAYAVKVIPQSRVAKPHQREKILNEIELHRDLQHRHIVRFSHHFEDADNIYIFLELCSRKSLAHIWKARHTLLEPEVRYYLRQILSGLKYLHQRGILHRDLKLGNFFITENMELKVGDFGLAARLEPPEQRKKTICGTPNYVAPEVLLRQGHGPEADVWSLGCVMYTLLCGSPPFETADLKETYRCIKQVHYTLPASLSLPARQLLAAILRASPRDRPSIDQILRHDFFTKGYTPDRLPISSCVTVPDLTPPNPARSLFAKVTKSLFGRKKKSKNHAQERDEVSGLVSGLMRTSVGHQDARPEAPAASGPAPVSLVETAPEDSSPRGTLASSGDGFEEGLTVATVVESALCALRNCIAFMPPAEQNPAPLAQPEPLVWVSKWVDYSNKFGFGYQLSSRRVAVLFNDGTHMALSANRKTVHYNPTSTKHFSFSVGAVPRALQPQLGILRYFASYMEQHLMKGGDLPSVEEVEVPAPPLLLQWVKTDQALLMLFSDGTVQVNFYGDHTKLILSGWEPLLVTFVARNRSACTYLASHLRQLGCSPDLRQRLRYALRLLRDRSPA
B4 was tested, and the Fold Change in Percent Synuclein Phosphorylation (ELISA, HEK-293 overexpression) was 39.6 fold, the “Proportion of total synuclein that is phoshorylated at ser-129 (ELISA, HEK-293 overexpression)” value was 79.2% and the “in vitro biochemical assay, phosphorylation of synuclein” value was “PLK2 and PLK3 having extremely robust phosphorylation of synuclein”.

B5: GRK7 (protein)
chain: MVDMGALDNLIANTAYLQARKPSDCDSKELQRRRRSLALPGLQGCAELRQKLSLNFHSLCEQQPIGRRLFRDFLATVPTFRKAATFLEDVQNWELAEEGPTKDSALQGLVATCASAPAPGNPQPFLSQAVATKCQAATTEEERVAAVTLAKAEAMAFLQEQPFKDFVTSAFYDKFLQWKLFEMQPVSDKYFTEFRVLGKGGFGEVCAVQVKNTGKMYACKKLDKKRLKKKGGEKMALLEKEILEKVSSPFIVSLAYAFESKTHLCLVMSLMNGGDLKFHIYNVGTRGLDMSRVIFYSAQIACGMLHLHELGIVYRDMKPENVLLDDLGNCRLSDLGLAVEMKGGKPITQRAGTNGYMAPEILMEKVSYSYPVDWFAMGCSIYEMVAGRTPFKDYKEKVSKEDLKQRTLQDEVKFQHDNFTEEAKDICRLFLAKKPEQRLGSREKSDDPRKHHFFKTINFPRLEAGLIEPPFVPDPSVVYAKDIAEIDDFSEVRGVEFDDKDKQFFKNFATGAVPIAWQEEIIETGLFEELNDPNRPTGCEEGNSSKSGVCLLL
With B5 the “S129 phosphorylation, immunoblot (mAb 11A5)” value was “Prominent signals came from all GRKs except for GRK7”, the “in vitro kinase reaction … at serine 129” value was “capable of phosphorylating alpha-synuclein specifically at serine 129 and did not phosphorylate serine 87 in vitro” and the “phosphorylation of alpha-synuclein in vitro” value was “GRK 7 was not able to phosphorylate at appreciable levels”.

B6: GRK4 (protein)
chain: MELENIVANSLLLKARQGGYGKKSGRSKKWKEILTLPPVSQCSELRHSIEKDYSSLCDKQPIGRRLFRQFCDTKPTLKRHIEFLDAVAEYEVADDEDRSDCGLSILDRFFNDKLAAPLPEIPPDVVTECRLGLKEENPSKKAFEECTRVAHNYLRGEPFEEYQESSYFSQFLQWKWLERQPVTKNTFRHYRVLGKGGFGEVCACQVRATGKMYACKKLQKKRIKKRKGEAMALNEKRILEKVQSRFVVSLAYAYETKDALCLVLTIMNGGDLKFHIYNLGNPGFDEQRAVFYAAELCCGLEDLQRERIVYRDLKPENILLDDRGHIRISDLGLATEIPEGQRVRGRVGTVGYMAPEVVNNEKYTFSPDWWGLGCLIYEMIQGHSPFKKYKEKVKWEEVDQRIKNDTEEYSEKFSEDAKSICRMLLTKNPSKRLGCRGEGAAGVKQHPVFKDINFRRLEANMLEPPFCPDPHAVYCKDVLDIEQFSVVKGIYLDTADEDFYARFATGCVSIPWQNEMIESGCFKDINKSESEEALPLDLDKNIHTPVSRPNRGFFYRLFRRGGCLTMVPSEKEVEPKQC
For B6, the “S129 phosphorylation … of signal” value was “CKI>GRK6>PLK2>GRK4>GRK5>GRK2”.

B7: adrenergic, beta, receptor kinase 1 (GRK2; BARK1) (protein)
chain: MADLEAVLADVSYLMAMEKSKATPAARASKKILLPEPSIRSVMQKYLEDRGEVTFEKIFSQKLGYLLFRDFCLNHLEEARPLVEFYEEIKKYEKLETEEERVARSREIFDSYIMKELLACSHPFSKSATEHVQGHLGKKQVPPDLFQPYIEEICQNLRGDVFQKFIESDKFTRFCQWKNVELNIHLTMNDFSVHRIIGRGGFGEVYGCRKADTGKMYAMKCLDKKRIKMKQGETLALNERIMLSLVSTGDCPFIVCMSYAFHTPDKLSFILDLMNGGDLHYHLSQHGVFSEADMRFYAAEIILGLEHMHNRFVVYRDLKPANILLDEHGHVRISDLGLACDFSKKKPHASVGTHGYMAPEVLQKGVAYDSSADWFSLGCMLFKLLRGHSPFRQHKTKDKHEIDRMTLTMAVELPDSFSPELRSLLEGLLQRDVNRRLGCLGRGAQEVKESPFFRSLDWQMVFLQKYPPPLIPPRGEVNAADAFDIGSFDEEDTKGIKLLDSDQELYRNFPLTISERWQQEVAETVFDTINAETDRLEARKKAKNKQLGHEEDYALGKDCIMHGYMSKMGNPFLTQWQRRYFYLFPNRLEWRGEGEAPQSLLTMEEIQSVEETQIKERKCLLLKIRGGKQFILQCDSDPELVQWKKELRDAYREAQQLVQRVPKMKNKPRSPVVELSKVPLVQRGSANGL
With B7 the “S129 phosphorylation … of signal” value was “CKI>GRK6>PLK2>GRK4>GRK5>GRK2” and the “in vitro kinase reaction … at serine 129” value was “capable of phosphorylating alpha-synuclein specifically at serine 129 and did not phosphorylate serine 87 in vitro”.

B8: PLK4 (protein)
chain: MATCIGEKIEDFKVGNLLGKGSFAGVYRAESIHTGLEVAIKMIDKKAMYKAGMVQRVQNEVKIHCQLKHPSILELYNYFEDSNYVYLVLEMCHNGEMNRYLKNRVKPFSENEARHFMHQIITGMLYLHSHGILHRDLTLSNLLLTRNMNIKIADFGLATQLKMPHEKHYTLCGTPNYISPEIATRSAHGLESDVWSLGCMFYTLLIGRPPFDTDTVKNTLNKVVLADYEMPSFLSIEAKDLIHQLLRRNPADRLSLSSVLDHPFMSRNSSTKSKDLGTVEDSIDSGHATISTAITASSSTSISGSLFDKRRLLIGQPLPNKMTVFPKNKSSTDFSSSGDGNSFYTQWGNQETSNSGRGRVIQDAEERPHSRYLRRAYSSDRSGTSNSQSQAKTYTMERCHSAEMLSVSKRSGGGENEERYSPTDNNANIFNFFKEKTSSSSGSFERPDNNQALSNHLCPGKTPFPFADPTPQTETVQQWFGNLQINAHLRKTTEYDSISPNRDFQGHPDLQKDTSKNAWTDTKVKKNSDASDNAHSVKQQNTMKYMTALHSKPEIIQQECVFGSDPLSEQSKTRGMEPPWGYQNRTLRSITSPLVAHRLKPIRQKTKKAVVSILDSEEVCVELVKEYASQEYVKEVLQISSDGNTITIYYPNGGRGFPLADRPPSPTDNISRYSFDNLPEKYWRKYQYASRFVQLVRSKSPKITYFTRYAKCILMENSPGADFEVWFYDGVKIHKTEDFIQVIEKTGKSYTLKSESEVNSLKEEIKMYMDHANEGHRICLALESIISEEERKTRSAPFFPIIIGRKPGSTSSPKALSPPPSVDSNYPTRERASFNRMVMHSAASPTQAPILNPSMVTNEGLGLTTTASGTDISSNSLKDCLPKSAQLLKSVFVKNVGWATQLTSGAVWVQFNDGSQLVVQAGVSSISYTSPNGQTTRYGENEKLPDYIKQKLQCLSSILLMFSNPTPNFH
For B8, the Fold Change in Percent Synuclein Phosphorylation (ELISA, HEK-293 overexpression) was 1 fold, the “Proportion of total synuclein that is phoshorylated at ser-129 (ELISA, HEK-293 overexpression)” value was 1.9% and the “in vitro biochemical assay, phosphorylation of synuclein” value was “PLK4 exhibiting no ability to phosphorylate synuclein”.
